Measurements published in patent US20150203577A1 (Chugai, published 2015).

What was measured:
mouse FcγRII [1] = target: T1, mouse FcγRII (mouse, UniProt P08101 30-210); assay: SPR (Biacore T200); KD of H237-mIgG1/MRAL-k0 / KD of variant
T1 construct: Extracellular domain with C-terminal His tag; also called mFcγRII; mFcgRII
T1 sequence: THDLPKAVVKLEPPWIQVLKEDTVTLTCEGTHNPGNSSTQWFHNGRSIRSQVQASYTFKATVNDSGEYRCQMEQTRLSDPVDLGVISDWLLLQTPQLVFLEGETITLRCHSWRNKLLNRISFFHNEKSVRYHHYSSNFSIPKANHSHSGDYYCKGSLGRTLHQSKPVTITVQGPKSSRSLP

mouse FcγRIII [2] = target: T2, mouse FcγRIII (mouse, UniProt P08508 31-215); assay: as above
T2 construct: Extracellular domain with C-terminal His tag; also called mFcγRIII; mFcgRIII
T2 chain: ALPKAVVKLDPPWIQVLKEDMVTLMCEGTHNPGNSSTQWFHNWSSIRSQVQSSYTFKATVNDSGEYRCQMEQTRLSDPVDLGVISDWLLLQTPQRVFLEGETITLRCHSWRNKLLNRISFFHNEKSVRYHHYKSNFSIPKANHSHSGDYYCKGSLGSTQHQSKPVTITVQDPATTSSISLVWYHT

mouse FcγRII [3] = target: T1, mouse FcγRII; assay: SPR (Biacore T200); KD of H237-MB630/MRAL-k0 / KD of variant
mouse FcγRIII [4] = target: T2, mouse FcγRIII; assay: as above

Binder	relative mFcγRII-binding activity (mIgG1 = 1) (mouse FcγRII [1]) [fold]	relative mFcγRIII-binding activity (mIgG1 = 1) (mouse FcγRIII [2]) [fold]	Relative mFcγRII-binding activity (MB630 = 1) (mouse FcγRII [3]) [fold]	Relative mFcγRIII-binding activity (MB630 = 1) (mouse FcγRIII [4]) [fold]
MB821 (antibody, mouse IgG1, kappa, CH name; VH H237 + CH, L chain MRAL-k0; copies: 2 + 2) heavy: QVQLQESGPGLVKPSETLSLTCAVSGHSISHDHAWSWVRQPPGEGLEWIGFISYSGITNYNPSLQGRVTISRDNSKNTLYLQMNSLRAEDTAVYYCARSLARTTAMDYWGEGTLVTVSSAKTTPPSVYPLAPGSAAQTNSMVTLGCLVKGYFPEPVTVTWNSGSLSSGVHTFPAVLQSDLYTLSSSVTVPSSTWPSETVTCNVAHPASSTKVDKKIVPRDCGCKPCICEPNEVELVFIFPPKPKDVLTITLTPKVTCVVVDISKDDPEVQFSWFVDDVEVHTAQTQPREEQFNSTFRSVSELPIMHQDWLNGKEFKCRVMSAAFPAPIERTISKTKGRPKAPQVYTIPPPKEQMAKDKVSLTCMITDFFPEDITVEWQWNGQPAENYKNTQPIMDTDGSYFVYSKLNVQKSNWEAGNTFTCSVLHEGLHNHHTEKSLSHSPGK light: not shown	24.4	0.45	1.86	1.96
MB829 (antibody, mouse IgG1, kappa, CH name; VH H237 + CH, L chain MRAL-k0; copies: 2 + 2) heavy: QVQLQESGPGLVKPSETLSLTCAVSGHSISHDHAWSWVRQPPGEGLEWIGFISYSGITNYNPSLQGRVTISRDNSKNTLYLQMNSLRAEDTAVYYCARSLARTTAMDYWGEGTLVTVSSAKTTPPSVYPLAPGSAAQTNSMVTLGCLVKGYFPEPVTVTWNSGSLSSGVHTFPAVLQSDLYTLSSSVTVPSSTWPSETVTCNVAHPASSTKVDKKIVPRDCGCKPCICEPNEVELVFIFPPKPKDVLTITLTPKVTCVVVDISKDDPEVQFSWFVDDVEVHTAQTQPREEQFNSTFRSVSELPIMHQDWLNGKEFKCRVNSAGFPAPIERTISKTKGRPKAPQVYTIPPPKEQMAKDKVSLTCMITDFFPEDITVEWQWNGQPAENYKNTQPIMDTDGSYFVYSKLNVQKSNWEAGNTFTCSVLHEGLHNHHTEKSLSHSPGK light: not shown	33.8	0.63	2.57	2.75
MB824 (antibody, mouse IgG1, kappa, CH name; VH H237 + CH, L chain MRAL-k0; copies: 2 + 2) heavy: QVQLQESGPGLVKPSETLSLTCAVSGHSISHDHAWSWVRQPPGEGLEWIGFISYSGITNYNPSLQGRVTISRDNSKNTLYLQMNSLRAEDTAVYYCARSLARTTAMDYWGEGTLVTVSSAKTTPPSVYPLAPGSAAQTNSMVTLGCLVKGYFPEPVTVTWNSGSLSSGVHTFPAVLQSDLYTLSSSVTVPSSTWPSETVTCNVAHPASSTKVDKKIVPRDCGCKPCICEPNEVELVFIFPPKPKDVLTITLTPKVTCVVVDISKDDPEVQFSWFVDDVEVHTAQTQPREEQFNSTFRSVSELPIMHQDWLNGKEFKCRVNSDAFPAYIEKTISKTKGRPKAPQVYTIPPPKEQMAKDKVSLTCMITDFFPEDITVEWQWNGQPAENYKNTQPIMDTDGSYFVYSKLNVQKSNWEAGNTFTCSVLHEGLHNHHTEKSLSHSPGK light: not shown	28	0.56	2.13	2.45
MB825 (antibody, mouse IgG1, kappa, CH name; VH H237 + CH, L chain MRAL-k0; copies: 2 + 2) heavy: QVQLQESGPGLVKPSETLSLTCAVSGHSISHDHAWSWVRQPPGEGLEWIGFISYSGITNYNPSLQGRVTISRDNSKNTLYLQMNSLRAEDTAVYYCARSLARTTAMDYWGEGTLVTVSSAKTTPPSVYPLAPGSAAQTNSMVTLGCLVKGYFPEPVTVTWNSGSLSSGVHTFPAVLQSDLYTLSSSVTVPSSTWPSETVTCNVAHPASSTKVDKKIVPRDCGCKPCICEPNEVELVFIFPPKPKDVLTITLTPKVTCVVVDISKDDPEVQFSWFVDDVEVHTAQTQPREEQFNSTFRSVSELPIMHQDWLNGKEFKCRVNSDAFPAPIYKTISKTKGRPKAPQVYTIPPPKEQMAKDKVSLTCMITDFFPEDITVEWQWNGQPAENYKNTQPIMDTDGSYFVYSKLNVQKSNWEAGNTFTCSVLHEGLHNHHTEKSLSHSPGK light: not shown	28.4	0.5	2.16	2.17
MB823 (antibody, mouse IgG1, kappa, CH name; VH H237 + CH, L chain MRAL-k0; copies: 2 + 2) heavy: QVQLQESGPGLVKPSETLSLTCAVSGHSISHDHAWSWVRQPPGEGLEWIGFISYSGITNYNPSLQGRVTISRDNSKNTLYLQMNSLRAEDTAVYYCARSLARTTAMDYWGEGTLVTVSSAKTTPPSVYPLAPGSAAQTNSMVTLGCLVKGYFPEPVTVTWNSGSLSSGVHTFPAVLQSDLYTLSSSVTVPSSTWPSETVTCNVAHPASSTKVDKKIVPRDCGCKPCICEPNEVELVFIFPPKPKDVLTITLTPKVTCVVVDISKDDPEVQFSWFVDDVEVHTAQTQPREEQFNSTFRSVSELPIMHQDWLNGKEFKCRVNSDAFPAFIEKTISKTKGRPKAPQVYTIPPPKEQMAKDKVSLTCMITDFFPEDITVEWQWNGQPAENYKNTQPIMDTDGSYFVYSKLNVQKSNWEAGNTFTCSVLHEGLHNHHTEKSLSHSPGK light: not shown	25	0.49	1.9	2.13
MB827 (antibody, mouse IgG1, kappa, CH name; VH H237 + CH, L chain MRAL-k0; copies: 2 + 2) heavy: QVQLQESGPGLVKPSETLSLTCAVSGHSISHDHAWSWVRQPPGEGLEWIGFISYSGITNYNPSLQGRVTISRDNSKNTLYLQMNSLRAEDTAVYYCARSLARTTAMDYWGEGTLVTVSSAKTTPPSVYPLAPGSAAQTNSMVTLGCLVKGYFPEPVTVTWNSGSLSSGVHTFPAVLQSDLYTLSSSVTVPSSTWPSETVTCNVAHPASSTKVDKKIVPRDCGCKPCICEPNEVELVFIFPPKPKDVLTITLTPKVTCVVVDISKDDPEVQFSWFVDDVEVHTAQTQPREEQFNSTFRSVSELPIMHQDWLNGKEFKCRVNSAGFPAYIEKTISKTKGRPKAPQVYTIPPPKEQMAKDKVSLTCMITDFFPEDITVEWQWNGQPAENYKNTQPIMDTDGSYFVYSKLNVQKSNWEAGNTFTCSVLHEGLHNHHTEKSLSHSPGK light: not shown	21.5	0.38	1.63	1.64
MB822 (antibody, mouse IgG1, kappa, CH name; VH H237 + CH, L chain MRAL-k0; copies: 2 + 2) heavy: QVQLQESGPGLVKPSETLSLTCAVSGHSISHDHAWSWVRQPPGEGLEWIGFISYSGITNYNPSLQGRVTISRDNSKNTLYLQMNSLRAEDTAVYYCARSLARTTAMDYWGEGTLVTVSSAKTTPPSVYPLAPGSAAQTNSMVTLGCLVKGYFPEPVTVTWNSGSLSSGVHTFPAVLQSDLYTLSSSVTVPSSTWPSETVTCNVAHPASSTKVDKKIVPRDCGCKPCICEPNEVELVFIFPPKPKDVLTITLTPKVTCVVVDISKDDPEVQFSWFVDDVEVHTAQTQPREEQFNSTFRSVSELPIMHQDWLNGKEFKCRVNSDGFPAPIEKTISKTKGRPKAPQVYTIPPPKEQMAKDKVSLTCMITDFFPEDITVEWQWNGQPAENYKNTQPIMDTDGSYFVYSKLNVQKSNWEAGNTFTCSVLHEGLHNHHTEKSLSHSPGK light: not shown	43.8	0.93	3.33	4.02
MB828 (antibody, mouse IgG1, kappa, CH name; VH H237 + CH, L chain MRAL-k0; copies: 2 + 2) heavy: QVQLQESGPGLVKPSETLSLTCAVSGHSISHDHAWSWVRQPPGEGLEWIGFISYSGITNYNPSLQGRVTISRDNSKNTLYLQMNSLRAEDTAVYYCARSLARTTAMDYWGEGTLVTVSSAKTTPPSVYPLAPGSAAQTNSMVTLGCLVKGYFPEPVTVTWNSGSLSSGVHTFPAVLQSDLYTLSSSVTVPSSTWPSETVTCNVAHPASSTKVDKKIVPRDCGCKPCICEPNEVELVFIFPPKPKDVLTITLTPKVTCVVVDISKDDPEVQFSWFVDDVEVHTAQTQPREEQFNSTFRSVSELPIMHQDWLNGKEFKCRVNSAGFPAPIYKTISKTKGRPKAPQVYTIPPPKEQMAKDKVSLTCMITDFFPEDITVEWQWNGQPAENYKNTQPIMDTDGSYFVYSKLNVQKSNWEAGNTFTCSVLHEGLHNHHTEKSLSHSPGK light: not shown	28.4	0.49	2.16	2.14
MB826 (antibody, mouse IgG1, kappa, CH name; VH H237 + CH, L chain MRAL-k0; copies: 2 + 2) heavy: QVQLQESGPGLVKPSETLSLTCAVSGHSISHDHAWSWVRQPPGEGLEWIGFISYSGITNYNPSLQGRVTISRDNSKNTLYLQMNSLRAEDTAVYYCARSLARTTAMDYWGEGTLVTVSSAKTTPPSVYPLAPGSAAQTNSMVTLGCLVKGYFPEPVTVTWNSGSLSSGVHTFPAVLQSDLYTLSSSVTVPSSTWPSETVTCNVAHPASSTKVDKKIVPRDCGCKPCICEPNEVELVFIFPPKPKDVLTITLTPKVTCVVVDISKDDPEVQFSWFVDDVEVHTAQTQPREEQFNSTFRSVSELPIMHQDWLNGKEFKCRVNSAGFPAFIEKTISKTKGRPKAPQVYTIPPPKEQMAKDKVSLTCMITDFFPEDITVEWQWNGQPAENYKNTQPIMDTDGSYFVYSKLNVQKSNWEAGNTFTCSVLHEGLHNHHTEKSLSHSPGK light: not shown	18.5	0.34	1.41	1.48
